From the RNAGym collection of RNA variant scans (doi:10.7554/elife.80360)

B1: Hammerhead Ribozyme (parent)
chain: ACCGGAUGUGCUUUCCGGUCUGAUGAGUCCGUGAGGACGAAACAG

Variants of: B1
Assay: self-cleavage, relative activity (ratio to wild type); higher = more cleavage; co-transcriptional

Compared with ACCGGAUGUGCAGUCCGGUCUGAUGAGUCCGUGAGGACGAAACAG [U12A U13G], ACCGGAUGUGCAUACCGGUCUGAUGAGUCCGUGAGGACGAAACAG [U12A U14A] is higher in self-cleavage: 0.762 for the first, 0.798 for the second.

Compared with ACCGGAUGUGCAUCCCGGUCUGAUGAGUCCGUGAGGACGAAACAG [U12A U14C], ACCGGAUGUGCAUGCCGGUCUGAUGAGUCCGUGAGGACGAAACAG [U12A U14G] is lower in self-cleavage: 0.946 for the first, 0.565 for the second.

Going from ACCGGAUGUGCAUUCCGGACUGAUGAGUCCGUGAGGACGAAACAG [U12A U19A] to ACCGGAUGUGCAUUCCGGCCUGAUGAGUCCGUGAGGACGAAACAG [U12A U19C], the self-cleavage falls from 0.419 to 0.366.

Going from ACCGGAUGUGCAUUCCGGGCUGAUGAGUCCGUGAGGACGAAACAG [U12A U19G] to ACCGGAUGUGCAUUCCGGUCAGAUGAGUCCGUGAGGACGAAACAG [U12A U21A], the self-cleavage rises from 0.431 to 0.658.

First: ACCGGAUGUGCAUUCCGGUCCGAUGAGUCCGUGAGGACGAAACAG [U12A U21C]
Second: ACCGGAUGUGCAUUCCGGUCGGAUGAGUCCGUGAGGACGAAACAG [U12A U21G]
The self-cleavage of the first is higher: 0.517 for the first, 0.425 for the second.

First: ACCGGAUGUGCAUUCCGGUCUGAAGAGUCCGUGAGGACGAAACAG [U12A U24A]
Second: ACCGGAUGUGCAUUCCGGUCUGACGAGUCCGUGAGGACGAAACAG [U12A U24C]
The self-cleavage of the first is higher: 0.937 for the first, 0.727 for the second.

Compared with ACCGGAUGUGCAUUCCGGUCUGAGGAGUCCGUGAGGACGAAACAG [U12A U24G], ACCGGAUGUGCAUUCCGGUCUGAUGAGACCGUGAGGACGAAACAG [U12A U28A] is lower in self-cleavage: 1.23 for the first, 0.873 for the second.

First: ACCGGAUGUGCAUUCCGGUCUGAUGAGCCCGUGAGGACGAAACAG [U12A U28C]
Second: ACCGGAUGUGCAUUCCGGUCUGAUGAGGCCGUGAGGACGAAACAG [U12A U28G]
The self-cleavage of the first is higher: 1.1 for the first, 0.92 for the second.

Going from ACCGGAUGUGCAUUCCGGUCUGAUGAGUCCGAGAGGACGAAACAG [U12A U32A] to ACCGGAUGUGCAUUCCGGUCUGAUGAGUCCGCGAGGACGAAACAG [U12A U32C], the self-cleavage rises from 0.698 to 1.14.

Going from ACCGGAUGUGCAUUCCGGUCUGAUGAGUCCGGGAGGACGAAACAG [U12A U32G] to ACCGGAUGUGCCUUCCGGUCUGAUGAGUCCGUGAGGACGAAACAG [U12C], the self-cleavage rises from 0.878 to 1.05.

Going from ACCGGAUGUGCCUUCCGGUCUGCUGAGUCCGUGAGGACGAAACAG [U12C A23C] to ACCGGAUGUGCCUUCCGGUCUGGUGAGUCCGUGAGGACGAAACAG [U12C A23G], the self-cleavage rises from 0.361 to 0.37.

Going from ACCGGAUGUGCCUUCCGGUCUGUUGAGUCCGUGAGGACGAAACAG [U12C A23U] to ACCGGAUGUGCCUUCCGGUCUGAUGCGUCCGUGAGGACGAAACAG [U12C A26C], the self-cleavage rises from 0.321 to 0.505.

First: ACCGGAUGUGCCUUCCGGUCUGAUGGGUCCGUGAGGACGAAACAG [U12C A26G]
Second: ACCGGAUGUGCCUUCCGGUCUGAUGUGUCCGUGAGGACGAAACAG [U12C A26U]
The self-cleavage of the first is lower: 0.308 for the first, 0.854 for the second.

Going from ACCGGAUGUGCCUUCCGGUCUGAUGAGUCCGUGCGGACGAAACAG [U12C A34C] to ACCGGAUGUGCCUUCCGGUCUGAUGAGUCCGUGGGGACGAAACAG [U12C A34G], the self-cleavage rises from 0.877 to 1.09.

Compared with ACCGGAUGUGCCUUCCGGUCUGAUGAGUCCGUGUGGACGAAACAG [U12C A34U], ACCGGAUGUGCCUUCCGGUCUGAUGAGUCCGUGAGGCCGAAACAG [U12C A37C] is lower in self-cleavage: 0.668 for the first, 0.573 for the second.

First: ACCGGAUGUGCCUUCCGGUCUGAUGAGUCCGUGAGGGCGAAACAG [U12C A37G]
Second: ACCGGAUGUGCCUUCCGGUCUGAUGAGUCCGUGAGGUCGAAACAG [U12C A37U]
The self-cleavage of the first is higher: 0.915 for the first, 0.727 for the second.

Compared with ACCGGAUGUGCCUUCCGGUCUGAUGAGUCCGUGAGGACGCAACAG [U12C A40C], ACCGGAUGUGCCUUCCGGUCUGAUGAGUCCGUGAGGACGGAACAG [U12C A40G] is lower in self-cleavage: 0.531 for the first, 0.329 for the second.

Compared with ACCGGAUGUGCCUUCCGGUCUGAUGAGUCCGUGAGGACGUAACAG [U12C A40U], ACCGGAUGUGCCUUCCGGUCUGAUGAGUCCGUGAGGACGACACAG [U12C A41C] is lower in self-cleavage: 0.379 for the first, 0.299 for the second.

First: ACCGGAUGUGCCUUCCGGUCUGAUGAGUCCGUGAGGACGAGACAG [U12C A41G]
Second: ACCGGAUGUGCCUUCCGGUCUGAUGAGUCCGUGAGGACGAUACAG [U12C A41U]
The self-cleavage of the first is higher: 0.358 for the first, 0.288 for the second.

Compared with ACCGGAUGUGCCUUCCGGUCUGAUGAGUCCGUGAGGACGAACCAG [U12C A42C], ACCGGAUGUGCCUUCCGGUCUGAUGAGUCCGUGAGGACGAAGCAG [U12C A42G] is lower in self-cleavage: 0.32 for the first, 0.255 for the second.

Going from ACCGGAUGUGCCUUCCGGUCUGAUGAGUCCGUGAGGACGAAUCAG [U12C A42U] to ACCGGAUGUGCCUUCCGGUCUGAUGAGUCCGUGAGGACGAAACCG [U12C A44C], the self-cleavage rises from 0.364 to 0.611.

Compared with ACCGGAUGUGCCUUCCGGUCUGAUGAGUCCGUGAGGACGAAACGG [U12C A44G], ACCGGAUGUGCCUUCCGGUCUGAUGAGUCCGUGAGGACGAAACUG [U12C A44U] is lower in self-cleavage: 1.6 for the first, 0.725 for the second.

Going from ACCGGAUGUGCCUUACGGUCUGAUGAGUCCGUGAGGACGAAACAG [U12C C15A] to ACCGGAUGUGCCUUGCGGUCUGAUGAGUCCGUGAGGACGAAACAG [U12C C15G], the self-cleavage falls from 0.565 to 0.474.

Going from ACCGGAUGUGCCUUUCGGUCUGAUGAGUCCGUGAGGACGAAACAG [U12C C15U] to ACCGGAUGUGCCUUCAGGUCUGAUGAGUCCGUGAGGACGAAACAG [U12C C16A], the self-cleavage falls from 0.974 to 0.908.

Going from ACCGGAUGUGCCUUCGGGUCUGAUGAGUCCGUGAGGACGAAACAG [U12C C16G] to ACCGGAUGUGCCUUCUGGUCUGAUGAGUCCGUGAGGACGAAACAG [U12C C16U], the self-cleavage rises from 0.652 to 0.878.

Compared with ACCGGAUGUGCCUUCCGGUAUGAUGAGUCCGUGAGGACGAAACAG [U12C C20A], ACCGGAUGUGCCUUCCGGUGUGAUGAGUCCGUGAGGACGAAACAG [U12C C20G] is lower in self-cleavage: 0.449 for the first, 0.324 for the second.

First: ACCGGAUGUGCCUUCCGGUUUGAUGAGUCCGUGAGGACGAAACAG [U12C C20U]
Second: ACCGGAUGUGCCUUCCGGUCUGAUGAGUACGUGAGGACGAAACAG [U12C C29A]
The self-cleavage of the first is lower: 0.395 for the first, 0.589 for the second.

Compared with ACCGGAUGUGCCUUCCGGUCUGAUGAGUGCGUGAGGACGAAACAG [U12C C29G], ACCGGAUGUGCCUUCCGGUCUGAUGAGUUCGUGAGGACGAAACAG [U12C C29U] is higher in self-cleavage: 0.599 for the first, 0.912 for the second.

ACCGGAUGUGCCUUCCGGUCUGAUGAGUCAGUGAGGACGAAACAG [U12C C30A] gave a self-cleavage of 0.955.
